T1: human CD22-ECD-His protein (human, UniProt P20273 20-687)
T1 construct: Made in house in HEK293E; also called hCD22-ECD-His; recombinant human CD22-ECD His protein; not shown: His tag
T1 sequence: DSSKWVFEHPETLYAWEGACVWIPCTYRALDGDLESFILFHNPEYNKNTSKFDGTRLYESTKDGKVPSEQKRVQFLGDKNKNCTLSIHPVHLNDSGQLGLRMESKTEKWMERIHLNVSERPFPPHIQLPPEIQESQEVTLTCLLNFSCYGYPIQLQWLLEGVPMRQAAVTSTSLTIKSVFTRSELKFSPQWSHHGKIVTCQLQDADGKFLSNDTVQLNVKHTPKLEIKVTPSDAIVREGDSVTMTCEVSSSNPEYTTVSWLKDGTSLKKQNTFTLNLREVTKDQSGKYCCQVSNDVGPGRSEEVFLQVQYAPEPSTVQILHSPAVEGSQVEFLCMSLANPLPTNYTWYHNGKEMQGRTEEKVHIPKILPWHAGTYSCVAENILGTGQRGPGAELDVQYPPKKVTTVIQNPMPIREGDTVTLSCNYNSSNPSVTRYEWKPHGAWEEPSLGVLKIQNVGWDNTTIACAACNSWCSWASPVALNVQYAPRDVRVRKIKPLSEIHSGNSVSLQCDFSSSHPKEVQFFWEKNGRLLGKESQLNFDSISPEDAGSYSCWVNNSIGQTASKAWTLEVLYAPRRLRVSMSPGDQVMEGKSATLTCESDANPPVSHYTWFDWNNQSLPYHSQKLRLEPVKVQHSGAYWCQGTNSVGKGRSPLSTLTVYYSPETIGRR

T2: human CD22 domain5-7-His (human, UniProt P20273 414-687)
T2 construct: also called hCD22 domain5-7-His; not shown: His tag
T2 sequence: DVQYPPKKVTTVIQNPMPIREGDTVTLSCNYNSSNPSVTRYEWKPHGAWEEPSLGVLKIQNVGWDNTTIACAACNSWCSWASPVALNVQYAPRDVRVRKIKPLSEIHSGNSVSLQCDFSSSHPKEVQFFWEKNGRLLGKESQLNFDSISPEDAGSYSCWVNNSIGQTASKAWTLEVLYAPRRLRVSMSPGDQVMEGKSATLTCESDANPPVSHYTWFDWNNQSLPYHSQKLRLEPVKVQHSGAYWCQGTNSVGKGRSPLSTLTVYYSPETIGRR

T3: murine CD22 protein (ACROBiosystems, SI2-M52Ha) (murine, UniProt P35329 22-708)
T3 construct: extracellular domain; also called murine CD22-ECD; murine CD22-ECD-His
T3 sequence (looked up): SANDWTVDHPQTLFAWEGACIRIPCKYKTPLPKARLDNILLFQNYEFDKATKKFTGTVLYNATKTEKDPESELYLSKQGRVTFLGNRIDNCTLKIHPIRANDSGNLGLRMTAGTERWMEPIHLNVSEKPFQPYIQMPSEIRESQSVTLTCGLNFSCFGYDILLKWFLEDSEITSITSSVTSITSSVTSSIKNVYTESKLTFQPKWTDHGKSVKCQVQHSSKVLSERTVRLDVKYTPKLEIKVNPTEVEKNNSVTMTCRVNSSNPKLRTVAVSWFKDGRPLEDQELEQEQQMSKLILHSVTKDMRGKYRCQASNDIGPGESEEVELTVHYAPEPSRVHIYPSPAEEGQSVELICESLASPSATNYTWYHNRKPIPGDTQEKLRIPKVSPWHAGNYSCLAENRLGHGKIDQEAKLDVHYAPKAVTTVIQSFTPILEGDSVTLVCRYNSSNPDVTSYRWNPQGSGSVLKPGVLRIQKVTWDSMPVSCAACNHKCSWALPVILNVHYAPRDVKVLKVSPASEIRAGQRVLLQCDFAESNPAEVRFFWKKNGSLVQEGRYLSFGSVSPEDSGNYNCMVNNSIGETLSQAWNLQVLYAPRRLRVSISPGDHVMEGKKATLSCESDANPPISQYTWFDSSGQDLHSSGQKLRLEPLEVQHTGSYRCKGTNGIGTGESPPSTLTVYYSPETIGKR

B1: F1.161.7 (antibody, human IgG1, kappa, V domains shown)
VH: QVQLQQPGAELVKPGASVKMSCKASGYTFTSYWISWVKQRPGQGLEWIGDIYPGTGSSNYNEKFKSKATLTVDTSSSTAYMQLSSLTSEDSAVYYCARLKFEGIGYWGQGTTLTVSS
VL: QIVLTQSPAIMSASLGEEITLTCSASSSVSYMHWFQQKSGTSPKLLIYSISNLASGVPSRFSGSGSGTFYSLTISSVEAEDAADYYCHQWSSYPWTFGGGTKLEIKR
notes: Human-murine chimeric IgG1, kappa
B2: F1.62.10 (antibody, human IgG1, kappa, V domains shown)
VH: QVQLQQSGPELVKPGASVKISCKASGYEFSSIWMNWVKQRPGEGLEWIGRIFPGDGEINYNEKFKGKATLTADRSSTTAYMQLSSLTSEDSAVYFCAGWRIYYGTYGAMDYWGQGTSVTVSS
VL: DIQMTQITSSLSASLGDRVTISCRASQDIGNYLNWYQQKPDGTVKLLIYYTSRLHSGVPSRFSGSGSRTDYSLTISNLQQEDIATYFCQQGNTLPWTFGGGTKLEIKR
notes: as for B1
B3: F2.121.9 (antibody, human IgG1, lambda, V domains shown)
VH: EVQLVESGGGLVKPGGSLKLSCAASGFTFSDYVMSWIRQTPEKRLEWVATISDAGSYTFYPDNLKGRFTISRDNAKNNLYLQMNHLTSEDTAFYYCAIIYFGNYGGYWGQGTLVTVSV
VL: QAVVTQESALTTSPGGTVVLTCRSNTGAVTTSNYANWVQEKPDHLFTGLIGGTSNRAPGVPVRFSGSLIGDKAALTITGAQTEDDAMYFCALWYSTHWVFGGGTKLTVLG
notes: Human-murine chimeric IgG1, lambda

Tests used:
[1] = biological target: T1, human CD22-ECD-His protein; experiment: ELISA, Ab 0.001 nM
Method: (§1) In order to detect the binding activity of CD22 human-murine chimeric antibodies to CD22 protein, the purified human CD22-ECD-His protein obtained in Example 2 was diluted with PBS to a final concentration of 2 μg/mL, and then added to 96-well ELISA plate at 100 μl/well. The plate was sealed with plastic film and incubated overnight at 4° C., the plate was washed 2 times with PBS the next day, and then a blocking solution [PBS+2% (w/w) BSA] was added for blocking at room temperature for 2 hours. […] After incubation at 37° C. for 2 hours, the plate was washed 3 times with PBS. HRP (horseradish peroxidase)-labeled secondary antibody (purchased from Sigma, catalog number: A0170) was added, and incubated at 37° C. for 2 hours, and the plate was washed 5 times with PBS. TMB substrate was added at 50 μl/well, and incubated at room temperature for 30 minutes, then a stop solution (1.0 N HCl) was added at 50 μl/well.

[2] = biological target: T1, human CD22-ECD-His protein; experiment: ELISA, Ab 10.00 nM
Method: as §1

[3] = biological target: T1, human CD22-ECD-His protein; experiment: ELISA, Ab 0.01 nM
Method: as §1

[4] = biological target: T2, human CD22 domain5-7-His; experiment: ELISA, human CD22 domain5-7-His coated
[5] = biological target: T1, human CD22-ECD-His protein; experiment: ELISA, human CD22-ECD-His coated
Method: as §1

[6] = biological target: T1, human CD22-ECD-His protein; experiment: ELISA, Ab 100.00 nM
Method: as §1

[7] = biological target: T1, human CD22-ECD-His protein; experiment: ELISA, Ab 0.00001 nM
Method: as §1

[8] = biological target: T1, human CD22-ECD-His protein; experiment: ELISA, Ab 0.0001 nM
Method: as §1

[9] = biological target: T1, human CD22-ECD-His protein; experiment: ELISA, Ab 0.10 nM
Method: as §1

[10] = biological target: T3, murine CD22 protein (ACROBiosystems, …); experiment: ELISA, murine CD22-ECD-His coated
Method: as §1
In order to detect the species cross-binding activity of the chimeric antibodies, an ELISA plate was coated with commercial murine CD22 protein (ACROBiosystems, catalog number: SI2-M52Ha) and monkey CD22 protein (ACROBiosystems, catalog number: SI2-R52Ha), respectively, and the ELISA detection was performed according to the method in Example 5.1.

| Binder | OD450 [1] | OD450 [2] | OD450 [3] | binding result [4] | EC50 (read off the curve) [5] | OD450 [6] | OD450 [7] | OD450 [8] | OD450 [9] | binding result [10] |
| --- | --- | --- | --- | --- | --- | --- | --- | --- | --- | --- |
| B1 | 1.22 OD450 | 2.63 OD450 | 2.34 OD450 | no binding (tested: 100 nM) | ~0.02 nM | 2.97 OD450 | 0.25 OD450 | 0.43 OD450 | 2.61 OD450 | no binding (tested: 100 nM) |
| B2 | 1.07 OD450 | 2.67 OD450 | 2.16 OD450 | no binding (tested: 100 nM) | ~0.02 nM | 2.93 OD450 | 0.24 OD450 | 0.37 OD450 | 2.79 OD450 | no binding (tested: 100 nM) |
| B3 | 0.69 OD450 | 1.92 OD450 | 1.6 OD450 | no binding (tested: 100 nM) | ~0.03 nM | 2.11 OD450 | 0.23 OD450 | 0.33 OD450 | 1.84 OD450 | no binding (tested: 100 nM) |

Source: patent US20240084003A1 (SIMCERE ZAIMING PHARMACEUTICAL, published 2024)
